How the values were obtained:
FGFR4 = molecular target: T1, FGFR4 (Homo sapiens, UniProt P22455); experiment: Surface plasmon resonance, FGFR4 ectodomain immobilized on chip; format: binding; details: SPR
T1 construct: Fc-FGFR4 protein (human ectodomain) was immobilized; purchased R&D Systems 685FR050
T1 sequence (P22455 22-369 limits assumed): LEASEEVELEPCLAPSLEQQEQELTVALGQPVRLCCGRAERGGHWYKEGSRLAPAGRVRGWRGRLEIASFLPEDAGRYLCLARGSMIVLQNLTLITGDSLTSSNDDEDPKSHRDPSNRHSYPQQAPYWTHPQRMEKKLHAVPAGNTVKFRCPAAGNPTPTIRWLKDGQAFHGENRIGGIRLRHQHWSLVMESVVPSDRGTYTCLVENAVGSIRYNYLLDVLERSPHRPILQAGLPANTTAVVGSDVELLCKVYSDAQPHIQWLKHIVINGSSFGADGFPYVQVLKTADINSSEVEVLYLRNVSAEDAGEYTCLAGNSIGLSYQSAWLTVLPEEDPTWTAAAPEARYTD
Protocol: For the direct quantitative analysis of label-free molecular interactions in real time, surface plasmon resonance studies were conducted using BIAcore T200 and T200 evaluation software (28975001, Cytiva). Sensor SA (BR100398) and CMS chips (BR100399) were from Cytiva. For the preparation of heparin chips, heparin (2 mg) and amine-PEG3-Biotin (2 mg, 21347, Pierce) were dissolved in 200 μl of H2O and 10 mg of NaCNBH3 was added. The reaction mixture was heated at 70° C. for 24 hours; an additional 10 mg of NaCNBH3 was added; and the reaction was heated at 70° C. for another 24 hours. After cooling to room temperature, the mixture was desalted with the spin column (3000 MWCO). Biotinylated heparin was collected, freeze dried, and used for chip preparation. Biotinylated heparin was immobilized to streptavidin chips according to the manufacturer's protocol. In brief, 20 μl of biotinylated heparin solution (0.1 mg/ml) in HBS-P running buffer (0.01 M N-2-hydroxyethylpiperazine-N′-2-ethanesulfonic acid, 0.15 M NaCl, 0.005% surfactant P20 [pH7.4]; BR100368, Cytiva) was injected over flow cell 2 of the streptavidin chip at a flow rate of 10 μl/min. The successful immobilization of heparin was confirmed by the observation of an approximately 200-resonance unit increase in the sensor chip. The control flow cell (flow cell 1) was prepared by 1-minute injection with saturated biotin. For the preparation of FGFR4 chips, Fc-FGFR4 protein (human ectodomain) was immobilized on research grade CMS chips according to the standard amine coupling protocol. Briefly, carboxymethyl groups on the CMS chip surface were first activated using an injection pulse of […] of an equimolar mix of N-ethyl-N-(dimethylaminopropyl) carbodiimide and N-hydroxysuccinimide (final concentration 0.05 M, mixed immediately before injection). After activation, FGFR4 was diluted to […] in 100 mM sodium acetate (pH 5.5) buffer and injected over the activated biosensor surface. […] The response was monitored as a function of time (sensorgram) at 25° C.

[1] = tested on: adult rat ventricular myocytes (ARVMs); experiment: Calcium transients and cell shortening in adult rat ventricular myocytes; format: cell-based
Protocol: As done before,^69 adult male Wistar rats (150-200 g) were killed and hearts were quickly removed and cannulated via the ascending aorta on a Langendorff system where they were retrograde perfused and digested by type II collagenase. Hearts were perfused with calcium-free Tyrode's solution supplemented with 0.2 mmol/L of ethyleneglycol-bis-((3-aminoethylether)-N,N, N′,N′-tetraacetic acid for 3 minutes. For the digestion, hearts were perfused with Tyrode's solution containing 0.1 mmol/L of CaCl2), 1 mg/ml of type II collagenase (Worthington), and 1 mg/ml of BSA for 3 to 4 minutes at room temperature. Cells were resuspended in Tyrode's solution containing 1 mmol/L of CaCl2). Tyrode's solution contains 130 mM NaCl, 5.4 mM KCl, 0.4 mM NaH2PO4, 0.5 mM MgCl2, 25 mM N-2-hydroxyethylpiperazine-N-2-ethanesulfonic acid, and 22 mM glucose. Adult rat ventricular myocytes (ARVMs) were loaded with the fluorescent Ca^2+ dye Fluo-3 AM (Thermo Fisher Scientific) for cytosolic Ca^2+ measurements. […] Cytosolic Ca^2+ transients were recorded under 1 Hz of field stimulation using 2 parallel platinum electrodes. […] Cell contraction was stimulated as the difference in cell length between rest and contraction (during electrical stimulation), expressed as a percentage of shortening of the cell length. […]

B1: FGF23: recombinant fibroblast growth factor 23 protein from R&D Systems (protein)
chain: YPDTSPLLGSNWGSLTHLYTATARTSYHLQIHRDGHVDGTPHQTIYSALMITSEDAGSVVITGAMTRRFLCMDLHGNIFGSLHFSPENCKFRQWTLENGYDVYLSQKHHYLVSLGRAKRIFQPGTNPPPFSQFLARRNEVPLLHFYTVRPRRHTRSAEDPPERDPLNVLKPRPRATPVPVSCSRELPSAEEGGPAASDPLGVLRRGRGDARGGAGGADRCRPFPRFV
B1 was tested, and the Kd (FGFR4) was 320 nM, the ka (FGFR4; 25° C.) was 1.2 × 10^3 1/MS and the kd (FGFR4; 25° C.) was 0.04 1/S. The “peak fluorescence [Ca2+]i transients (F/F0)” value ([1]; FGF23 10 ng/ml, 2 minutes perfusion) was “increased systolic” and the “cell contraction (cell shortening)” value ([1]; FGF23 alone) was “increased cell contraction”.
